Five molecules from patent publication CN114106164A (HANGZHOU PINK BIOTECHNOLOGY LTD COMPANY, dated 2022) can be followed below.

B1: B1-1 (antibody, V domains shown)
VH: QVQLVESGGGLVQPGGSLRLSCAASGFTFDDYAMSWVRQAPGKGLEWVSNIYSYISTTHYADSVKGRFTISTDNAKNTLYLQMNSLKPEDTAVYYCAARRLDTTDYKYWGQGTQVTVSS
B2: A2-2 (antibody, V domains shown)
VH: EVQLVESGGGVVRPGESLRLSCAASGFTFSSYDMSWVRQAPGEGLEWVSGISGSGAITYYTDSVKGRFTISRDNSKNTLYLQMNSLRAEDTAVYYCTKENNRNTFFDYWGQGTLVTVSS
VL: EIVLTQSPGTLSLSPGERATLSCRASQTVRSDLAWYQQKPGQAPRLLIYGASTRATDISDRFSGSGSGTEFTLTISSLQSEDFAVYYCQQYYEWPPHSDSFGGGTKVEIK
B3: A2-4 (antibody, V domains shown)
VH: EVKLMESGGGLVQPGGSLKLSCAASGFDFSRYWMSWVRQAPGEGLEWIGEINPDSSTISYTPSLKDKFIISRDNAKNTLYLQMSKVRSEDTALYYCARRGLLLLTMDYWGQGTSVTVSS
VL: DIVMTQSPKSLSMSVGERVTLSCKASENVDTYVSWYQQKPEQSPKLLIYGASNRYTGVPDRFTGSGSATYFTLTISSVQAEDLADYHCGQTYSYPFTFGSGTKLEIK
B4: B1-2 (antibody, V domains shown)
VH: QVQLVESGGGFVQPGGSLRLSCAVSGGTFSTYGMGWFRQAPGKEREIVAAIRRSGSTYYADSVRGRFTISRDNAKNSVLLQMNSLKPEDTAVYYCAARRAGREYEYWGQGTQVTVSS
B5: Mouse anti-SARS-COV-2 Mab1(RBD-Ab) (antibody, V domains shown)
VH: VKLQESGAELVRPGTSVKVSCKASGYAFTNYLIEWVKQRPGQGLEWIGVINPGSGGTNYNEKFKGKATLTADKSSSTAYMQLSSLTSDDSAVYFCARGRADYWGQGTSVTVSS
VL: DILMTQSPSSMSVSLGDTVSITCHASQGFSSNIGWLQQKPGKSFKGLIYHGTNLEDGVPSRFSGSGSGADYSLTISSLESEDFADYYCVQYAQFPYTFGGGTKLEIK
notes: also called B1-5; B1-5号抗体

For the first test, the target named is T1, SARS-CoV-2-RBD蛋白 (重组6X His标记的RBD蛋白) (SARS-CoV-2, UniProt P0DTC2 319-541). Nature of the test: indirect ELISA, purified antibody, antigen coated 3ug/ml. (ELISA stands for enzyme-linked immunosorbent assay.)
Turning to B1, the “ELISA OD at 1.28ng/ml” value came out at 0.072, the “ELISA OD at 6.4ng/ml” value was 0.088, the “ELISA OD at 32ng/ml” value is 0.154 and the “ELISA OD at 160ng/ml” value was 0.38. Moreover, the “ELISA OD at 800ng/ml” value came out at 0.929, the “ELISA OD at 4ug/ml” value was 1.19 and the “ELISA OD at 20ug/ml” value was 1.35.
In the case of B2, the “ELISA OD at 1.28ng/ml” value turned out to be 0.115, the “ELISA OD at 6.4ng/ml” value was 0.229, the “ELISA OD at 32ng/ml” value came to 0.447 and the “ELISA OD at 160ng/ml” value amounted to 0.689. Moreover, the “ELISA OD at 800ng/ml” value was determined as 1.27, the “ELISA OD at 4ug/ml” value was found to be 1.62 and the “ELISA OD at 20ug/ml” value was 1.72.
With B3, the “ELISA OD at 1.28ng/ml” value was 0.106, the “ELISA OD at 6.4ng/ml” value was found to be 0.126, the “ELISA OD at 32ng/ml” value was 0.149 and the “ELISA OD at 160ng/ml” value is 0.279. In addition, the “ELISA OD at 800ng/ml” value was 0.584, the “ELISA OD at 4ug/ml” value is 1.33 and the “ELISA OD at 20ug/ml” value was 1.95.
In the case of B4, the “ELISA OD at 1.28ng/ml” value came to 0.073, the “ELISA OD at 6.4ng/ml” value is 0.085, the “ELISA OD at 32ng/ml” value came to 0.127 and the “ELISA OD at 160ng/ml” value was found to be 0.26. The “ELISA OD at 800ng/ml” value amounted to 0.647, the “ELISA OD at 4ug/ml” value worked out at 1.49 and the “ELISA OD at 20ug/ml” value was found to be 2.04.

In the next test the target is T1, SARS-CoV-2-RBD蛋白 (重组6X His标记的RBD蛋白). Nature of the test: indirect ELISA, ascites, antigen coated 3ug/ml.
On to B1, for which the “ELISA OD at 稀释倍数 100” value turned out to be 1.43, the “ELISA OD at 稀释倍数 500” value was found to be 1.31, the “ELISA OD at 稀释倍数 2500” value was 1.4 and the “ELISA OD at 稀释倍数 12500” value is 1.26. Further, the “ELISA OD at 稀释倍数 62500” value turned out to be 0.545, the “ELISA OD at 稀释倍数 312500” value came out at 0.19 and the “ELISA OD at 稀释倍数 1562500” value was determined as 0.084.
For the molecule B2, the “ELISA OD at 稀释倍数 100” value was 1.53, the “ELISA OD at 稀释倍数 500” value is 1.49, the “ELISA OD at 稀释倍数 2500” value was determined as 1.46 and the “ELISA OD at 稀释倍数 12500” value came to 1.06. Besides, the “ELISA OD at 稀释倍数 62500” value is 0.508, the “ELISA OD at 稀释倍数 312500” value came out at 0.155 and the “ELISA OD at 稀释倍数 1562500” value is 0.077.
Regarding B3, the “ELISA OD at 稀释倍数 100” value stood at 1.39, the “ELISA OD at 稀释倍数 500” value worked out at 1.36, the “ELISA OD at 稀释倍数 2500” value came to 1.43 and the “ELISA OD at 稀释倍数 12500” value amounted to 0.84. The “ELISA OD at 稀释倍数 62500” value was determined as 0.373, the “ELISA OD at 稀释倍数 312500” value was determined as 0.121 and the “ELISA OD at 稀释倍数 1562500” value worked out at 0.072.
B4: the “ELISA OD at 稀释倍数 100” value was determined as 1.85, the “ELISA OD at 稀释倍数 500” value is 1.61, the “ELISA OD at 稀释倍数 2500” value was 1 and the “ELISA OD at 稀释倍数 12500” value amounted to 0.297. The “ELISA OD at 稀释倍数 62500” value came out at 0.118, the “ELISA OD at 稀释倍数 312500” value came out at 0.091 and the “ELISA OD at 稀释倍数 1562500” value was 0.081.

A further test deals with T2, SARS-CoV Spike/RBD Protein(RBD,His Tag)，货号40150-V08B2 (SARS-CoV, UniProt P59594 306-527).
T2 construct: domain: RBD
The experiment in a line: ELISA, cross-reactivity test.
In the case of B5, the binding result is reported as “no binding”.

In another test the target is T3, MERS-CoV Spike/RBD Protein fragment(RBD,aa 367-606,His Tag)，货号40071-V08B1 (MERS-CoV, UniProt K9N5Q8 367-606).
T3 construct: range 367-606; Bought reagent
Nature of the test: ELISA, cross-reactivity test.
Turning to B5, the binding result is given as “no binding”.
